Results published in patent US12214052 (HOSPITAL FOR SICK CHILDREN, dated 2025).

T1: NANP 5-mer peptide (NANP5) (Plasmodium falciparum)
T1 peptide: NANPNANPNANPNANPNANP


Target: T1, NANP 5-mer peptide (NANP5)
Test: ITC
Method: Calorimetric titration experiments were performed with an Auto-iTC200 instrument (Malvern) at 25° C. Proteins were dialyzed against 20 mM Tris pH 8.0 and 150 mM sodium chloride overnight at 4° C. […] Experiments were performed at least three times and the mean and standard error of the mean were reported (FIG. 30). The experimental data were analyzed according to a 1:1 binding model by means of Origin 7.0.

Binder	binding stoichiometry
1210 Fab (Fab, V domains shown) VH: QVQLVESGGGVVQPGRSLRLSCAASGFTFSNYGMHWVRQAPGKGLEWVAVIWYDGSKKYYADSVKGRFTISRDNSKNTLYLQMNSLRAEDTAVYYCARVRDSSDYYGDAFDIWGQGTMVTVSS VL: DIQMTQSPSTLSASVGDRVTITCRASQSISSWLAWYQQKPGKAPKLLIYKASNLESGVPLRFSGSGSGTEFTLTISSLQPDDFATYYCQQYNNYWTFGQGTKVEIK	~2
1210 H.D100Ymut_K.N92Ymut (1210_YY) Fab (Fab, V domains shown) VH: QVQLVESGGGVVQPGRSLRLSCAASGFTFSNYGMHWVRQAPGKGLEWVAVIWYDGSKKYYADSVKGRFTISRDNSKNTLYLQMNSLRAEDTAVYYCARVRDSSYYYGDAFDIWGQGTMVTVSS VL: DIQMTQSPSTLSASVGDRVTITCRASQSISSWLAWYQQKPGKAPKLLIYKASNLESGVPLRFSGSGSGTEFTLTISSLQPDDFATYYCQQYYNYWTFGQGTKVEIK	~2
1210_GL Fab (Fab, V domains shown) VH: QVQLVESGGGVVQPGRSLRLSCAASGFTFSSYGMHWVRQAPGKGLEWVAVIWYDGSNKYYADSVKGRFTISRDNSKNTLYLQMNSLRAEDTAVYYCARVRDSSDYYGDAFDIWGQGTMVTVSS VL: not shown	~2
1210_H.K56_Nrev_K.N93_Srev (1210_NS) Fab (Fab, V domains shown) VH: QVQLVESGGGVVQPGRSLRLSCAASGFTFSNYGMHWVRQAPGKGLEWVAVIWYDGSNKYYADSVKGRFTISRDNSKNTLYLQMNSLRAEDTAVYYCARVRDSSDYYGDAFDIWGQGTMVTVSS VL: DIQMTQSPSTLSASVGDRVTITCRASQSISSWLAWYQQKPGKAPKLLIYKASNLESGVPLRFSGSGSGTEFTLTISSLQPDDFATYYCQQYNSYWTFGQGTKVEIK	~2
